Drawing on patent US6110707, this text covers HPLC separation of intracellular immunoreactive insulin species (processing of human proinsulin to mature insulin in engineered RIN cells) and NON (% TOTAL): non-amidated GLP-1 as percentage of total GLP-1 (non-amidated and amidated), by two specific immunoassays (% non-amidated of total GLP-1) for three substances.

The target in test [1] is human preproinsulin (human). The settings on record: scale: % of intracellular human insulin species left as proinsulin and intermediates.
Test [2] has as its target mutated human preproglucagon (arginine to alanine at amino acid residue 52) (human).
Test [3] deals with human preproglucagon (human).

In test [1], PC3 (from UniProt P28840) (enzyme) displayed an HPLC separation of intracellular immunoreactive insulin species (processing of human proinsulin to mature insulin in engineered RIN cells) of 8. “peptidylglycine alpha-amidating monooxygenase (PAM) (from UniProt P14925) (enzyme)”: the NON (% TOTAL): non-amidated GLP-1 as percentage of total GLP-1 (non-amidated and amidated), by two specific immunoassays (% non-amidated of total GLP-1) came to 59 in test [2] and 49 in test [3]. PC2 (from UniProt P28841) (enzyme) displayed an HPLC separation of intracellular immunoreactive insulin species (processing of human proinsulin to mature insulin in engineered RIN cells) in test [1] of 8.
